For orientation: EC50 means the concentration giving half of the maximal effect.

One test deals with DcR3 (UniProt O95407). Description: ELISA; receptor (DR3-Fc; DcR3) immobilised on Maxisorp plates, TL1A variant titrated in 3-fold dilutions, overnight 4 °C, detected with anti-human TL1A-biotin and streptavidin-HRP; concentrations normalised to TL1A trimer; triplicate.
The next test has as its target Recombinant DR3-Fc (UniProt Q93038). The description is as above.

Chain of Recombinant DR3-Fc (Q93038 25-199): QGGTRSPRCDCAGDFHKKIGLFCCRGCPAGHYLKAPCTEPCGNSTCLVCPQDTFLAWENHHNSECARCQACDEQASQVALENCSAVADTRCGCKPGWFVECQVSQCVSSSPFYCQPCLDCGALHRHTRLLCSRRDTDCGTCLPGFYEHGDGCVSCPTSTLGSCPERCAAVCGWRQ
Chain of DcR3 (O95407 30-300): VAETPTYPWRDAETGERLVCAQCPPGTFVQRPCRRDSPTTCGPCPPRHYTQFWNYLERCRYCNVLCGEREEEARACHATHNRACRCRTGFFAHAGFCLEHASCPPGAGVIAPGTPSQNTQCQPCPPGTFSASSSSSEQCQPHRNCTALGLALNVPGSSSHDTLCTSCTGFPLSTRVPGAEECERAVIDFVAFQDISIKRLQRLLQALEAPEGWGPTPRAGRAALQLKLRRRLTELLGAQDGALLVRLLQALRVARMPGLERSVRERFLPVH

With “TL1W125 (N207E) (from UniProt O95150 1-251) (ligand)”, the figures for the EC50 in the test with DcR3 and in the test with Recombinant DR3-Fc were 9.8 nM and 506 nM, respectively.

On to “TL1W28 (E190G) (from UniProt O95150 1-251) (ligand)”, for which the EC50 with DcR3 is 5.7 nM; in the test with Recombinant DR3-Fc it was 22.6 nM.

With “TL1W84 (E120H) (from UniProt O95150 1-251) (ligand)”, the EC50 came out at 55.7 nM with DcR3 and 182 nM with Recombinant DR3-Fc.

As for “TL1W103 (T185A) (from UniProt O95150 1-251) (ligand)”, the concentration for a half-maximal effect (EC50) with DcR3 was 11.5 nM; in the test with Recombinant DR3-Fc it was 57.9 nM.

On to “TL1W100 (S176L) (from UniProt O95150 1-251) (ligand)”, for which the EC50 turned out to be 15 nM with DcR3 and 324 nM with Recombinant DR3-Fc.

As for “TL1W104 (T185L) (from UniProt O95150 1-251) (ligand)”, the EC50 with DcR3 worked out at 19.3 nM; in the test with Recombinant DR3-Fc it was 49.4 nM.

On to “TL1W129 (Y238K) (from UniProt O95150 1-251) (ligand)”, for which the results for the EC50 in the test with DcR3 and with Recombinant DR3-Fc were 9 nM and 446 nM, respectively.

On to “TL1W123 (N207S) (from UniProt O95150 1-251) (ligand)”, for which the EC50 with DcR3 was 8.6 nM; with Recombinant DR3-Fc, 26.8 nM.

On to “TL1W82 (K111E) (from UniProt O95150 1-251) (ligand)”, for which the half-maximal effective concentration (EC50) worked out at 10.6 nM with DcR3 and 25.8 nM in the test with Recombinant DR3-Fc.

“TL1W133 (T239F) (from UniProt O95150 1-251) (ligand)”: the EC50 with DcR3 stood at 10.8 nM.

With “TL1W121 (S206E) (from UniProt O95150 1-251) (ligand)”, the figures for the EC50 with DcR3 and in the test with Recombinant DR3-Fc were 17.2 nM and 105 nM, respectively.

For “TL1W110 (S187K) (from UniProt O95150 1-251) (ligand)”, the EC50 with DcR3 came out at 15.8 nM; with Recombinant DR3-Fc, 33.7 nM.

Take “TL1W114 (T192A) (from UniProt O95150 1-251) (ligand)”: the half-maximal effective concentration (EC50) in the test with DcR3 is 10 nM; with Recombinant DR3-Fc it was 23.3 nM.

In the case of “TL1W132 (T239A) (from UniProt O95150 1-251) (ligand)”, the EC50 with DcR3 came to 27.2 nM; with Recombinant DR3-Fc, 144 nM.

Take “TL1W99 (S176A) (from UniProt O95150 1-251) (ligand)”: the EC50 with DcR3 was 11.5 nM; in the test with Recombinant DR3-Fc, 34.8 nM.

As to “TL1W96 (R170E) (from UniProt O95150 1-251) (ligand)”, the EC50 with DcR3 was 16.4 nM; with Recombinant DR3-Fc, 87 nM.

For “TL1W79 (R103E) (from UniProt O95150 1-251) (ligand)”, the values for the EC50 in the test with DcR3 and with Recombinant DR3-Fc were 7.1 nM and 204 nM, respectively.

With “TL1W43 (Y188S) (from UniProt O95150 1-251) (ligand)”, the EC50 with DcR3 amounted to 72.2 nM; with Recombinant DR3-Fc, 207 nM.

On to “TL1W137 (K240S) (from UniProt O95150 1-251) (ligand)”, for which the EC50 came out at 11.8 nM with DcR3 and 336 nM in the test with Recombinant DR3-Fc.

The substance “TL1W128 (Y238S) (from UniProt O95150 1-251) (ligand)” gave an EC50 with DcR3 of 10.5 nM.

For “TL1W111 (S187D) (from UniProt O95150 1-251) (ligand)”, the EC50 in the test with DcR3 worked out at 16.7 nM; with Recombinant DR3-Fc, 44.2 nM.

With “TL1W30 (N112E) (from UniProt O95150 1-251) (ligand)”, the EC50 in the test with DcR3 came to 4.7 nM; with Recombinant DR3-Fc it was 16.4 nM.

On to “TL1W87 (G124D) (from UniProt O95150 1-251) (ligand)”, for which, in the test with Recombinant DR3-Fc, the EC50 came to 14.8 nM.

For the substance “TL1W131 (Y238E) (from UniProt O95150 1-251) (ligand)”, the half-maximal effective concentration (EC50) with DcR3 came out at 6.6 nM; in the test with Recombinant DR3-Fc it was 300 nM.

Turning to “TL1W33 (E241L) (from UniProt O95150 1-251) (ligand)”, the EC50 in the test with DcR3 stood at 5.7 nM.

In the case of “TL1W29 (P189A) (from UniProt O95150 1-251) (ligand)”, the concentration for a half-maximal effect (EC50) came out at 7.6 nM in the test with DcR3 and 710 nM with Recombinant DR3-Fc.

With “TL1W24 (F209A) (from UniProt O95150 1-251) (ligand)”, the figures for the 50% effective concentration (EC50) with DcR3 and with Recombinant DR3-Fc were 30.7 nM and 281 nM, respectively.

“TL1W91 (R156E) (from UniProt O95150 1-251) (ligand)”: the EC50 with DcR3 is 8.3 nM.

Regarding “TL1W25 (N207A) (from UniProt O95150 1-251) (ligand)”, the EC50 was 3.7 nM with DcR3 and 13.4 nM in the test with Recombinant DR3-Fc.

As for “TL1W32 (Y188A) (from UniProt O95150 1-251) (ligand)”, the results for the EC50 in the test with DcR3 and with Recombinant DR3-Fc were 7.6 nM and 565 nM, respectively.

As for “TL1W85 (G124S) (from UniProt O95150 1-251) (ligand)”, the EC50 with DcR3 came to 57.1 nM; in the test with Recombinant DR3-Fc, 296 nM.

On to “TL1W98 (K173R) (from UniProt O95150 1-251) (ligand)”, for which the concentration for a half-maximal effect (EC50) with DcR3 was 27.8 nM; with Recombinant DR3-Fc, 2050 nM.

With “TL1W102 (S176K) (from UniProt O95150 1-251) (ligand)”, the figures for the half-maximal effective concentration (EC50) with DcR3 and with Recombinant DR3-Fc were 29.2 nM and 182 nM, respectively.

“TL1W118 (S206A) (from UniProt O95150 1-251) (ligand)”: the EC50 worked out at 8.8 nM with DcR3 and 41.7 nM in the test with Recombinant DR3-Fc.

Take “TL1W39 (L123G) (from UniProt O95150 1-251) (ligand)”: the EC50 in the test with DcR3 is 38.2 nM; with Recombinant DR3-Fc, 184 nM.

With “TL1W46 (T239W) (from UniProt O95150 1-251) (ligand)”, the EC50 with Recombinant DR3-Fc amounted to 284 nM.

The substance “TL1W134 (T239K) (from UniProt O95150 1-251) (ligand)” came in with an EC50 with DcR3 of 21.5 nM.

In the case of “TL1W37 (L123E) (from UniProt O95150 1-251) (ligand)”, the results for the EC50 with DcR3 and with Recombinant DR3-Fc were 24.3 nM and 423 nM, respectively.

Substance “TL1W83 (E120K) (from UniProt O95150 1-251) (ligand)” had an EC50 with DcR3 of 2.2 nM.

For “TL1W47 (E241A) (from UniProt O95150 1-251) (ligand)”, the figures for the EC50 with DcR3 and with Recombinant DR3-Fc were 1310 nM and 260 nM, respectively.

As to “TL1W108 (S187A) (from UniProt O95150 1-251) (ligand)”, in the test with Recombinant DR3-Fc, the EC50 stood at 39.1 nM.

Turning to “TL1W31 (R103Q) (from UniProt O95150 1-251) (ligand)”, the EC50 stood at 2.5 nM in the test with DcR3 and 9.5 nM with Recombinant DR3-Fc.

On to “TL1W86 (G124K) (from UniProt O95150 1-251) (ligand)”, for which the EC50 with DcR3 was 2.9 nM.

On to “TL1W112 (P189F) (from UniProt O95150 1-251) (ligand)”, for which the EC50 with DcR3 is 66.1 nM; with Recombinant DR3-Fc, 202 nM.

Take “TL1W116 (T192K) (from UniProt O95150 1-251) (ligand)”: the concentration giving a half-maximal response (EC50) was found to be 23.3 nM with DcR3 and 77 nM in the test with Recombinant DR3-Fc.

With “TL1W89 (R156Y) (from UniProt O95150 1-251) (ligand)”, in the test with DcR3, the EC50 came to 8 nM.

For the substance “TL1W44 (P189K) (from UniProt O95150 1-251) (ligand)”, the figures for the EC50 in the test with DcR3 and in the test with Recombinant DR3-Fc were 59.1 nM and 168 nM, respectively.

With “TL1W33 (R103A) (from UniProt O95150 1-251) (ligand)”, the EC50 in the test with DcR3 was determined as 3.3 nM; with Recombinant DR3-Fc it was 25 nM.

For “TL1W135 (K240A) (from UniProt O95150 1-251) (ligand)”, the EC50 with DcR3 came out at 8.5 nM.

On to “TL1W41 (E120A) (from UniProt O95150 1-251) (ligand)”, for which the results for the EC50 with DcR3 and in the test with Recombinant DR3-Fc were 32.6 nM and 100 nM, respectively.

Regarding “TL1W101 (S176N) (from UniProt O95150 1-251) (ligand)”, the EC50 with DcR3 worked out at 20.4 nM.

As for “TL1W107 (D186Y) (from UniProt O95150 1-251) (ligand)”, the values for the EC50 in the test with DcR3 and with Recombinant DR3-Fc were 6.2 nM and 63.8 nM, respectively.

For the substance “TL1W40 (L123S) (from UniProt O95150 1-251) (ligand)”, the EC50 in the test with DcR3 worked out at 16.4 nM; with Recombinant DR3-Fc, 30.7 nM.

As to “TL1W136 (K240F) (from UniProt O95150 1-251) (ligand)”, the EC50 with DcR3 turned out to be 178 nM; with Recombinant DR3-Fc, 266 nM.

In turn, “TL1W27 (T239E) (from UniProt O95150 1-251) (ligand)” registered an EC50 in the test with DcR3 of 34.3 nM.

Substance “TL1W130 (Y238R) (from UniProt O95150 1-251) (ligand)” returned a 50% effective concentration (EC50) in the test with DcR3 of 16.9 nM.

Turning to “TL1W139 (E241Q) (from UniProt O95150 1-251) (ligand)”, the EC50 with DcR3 stood at 17.3 nM.

For the substance “TL1W94 (M158E) (from UniProt O95150 1-251) (ligand)”, the EC50 turned out to be 18.7 nM in the test with DcR3 and 58.7 nM with Recombinant DR3-Fc.

Take “TL1W126 (F209W) (from UniProt O95150 1-251) (ligand)”: the EC50 was 13.7 nM with DcR3 and 56.8 nM with Recombinant DR3-Fc.

As to “TL1W81 (K111S) (from UniProt O95150 1-251) (ligand)”, the EC50 is 50.9 nM with DcR3 and 34.4 nM with Recombinant DR3-Fc.

With “TL1W113 (P189S) (from UniProt O95150 1-251) (ligand)”, the results for the EC50 with DcR3 and with Recombinant DR3-Fc were 19.8 nM and 1000 nM, respectively.

With “TL1W90 (R156K) (from UniProt O95150 1-251) (ligand)”, the EC50 in the test with DcR3 turned out to be 11 nM; in the test with Recombinant DR3-Fc, 188 nM.

As for “TL1W138 (K240D) (from UniProt O95150 1-251) (ligand)”, in the test with DcR3, the EC50 stood at 59.5 nM.

As for “TL1W88 (R156A) (from UniProt O95150 1-251) (ligand)”, in the test with DcR3, the concentration giving a half-maximal response (EC50) was determined as 13.5 nM.

For “TL1W105 (T185N) (from UniProt O95150 1-251) (ligand)”, the EC50 was 11.3 nM with DcR3 and 180 nM in the test with Recombinant DR3-Fc.

Turning to “TL1W120 (S206K) (from UniProt O95150 1-251) (ligand)”, the half-maximal effective concentration (EC50) is 91 nM with DcR3 and 114 nM in the test with Recombinant DR3-Fc.

Take “TL1W106 (T185D) (from UniProt O95150 1-251) (ligand)”: the values for the EC50 with DcR3 and with Recombinant DR3-Fc were 79.9 nM and 124 nM, respectively.

Consider “TL1W93 (M158K) (from UniProt O95150 1-251) (ligand)”, for which the EC50 in the test with DcR3 turned out to be 55.9 nM; in the test with Recombinant DR3-Fc, 22.5 nM.

As for “TL1W127 (Y238A) (from UniProt O95150 1-251) (ligand)”, the results for the EC50 with DcR3 and with Recombinant DR3-Fc were 8.9 nM and 4620 nM, respectively.

The record behind these values is paper PMC9709071.
